Laboratory results from article PMC6857237, “Design and structural characterisation of olfactomedin-1 variants as tools for functional studies” (BMC Molecular and Cell Biology, 2019).

Target: the molecule itself
Assay: SEC-MALS; analytical Superdex200 Increase 10/300, room temperature, SEC buffer (150 mM NaCl, 2 mM CaCl2, 20 mM HEPES pH 7.5), 0.5 mL/min; aldolase as calibration standard

B1: Olfm1^coil-Olf (olfactomedin-1 part of the coiled coil plus Olfactomedin domain, residues 212–478), disulfide-linked dimer (domain or fragment, mouse (Mus musculus))
chain: GSSNLEERLRACMQKLACGKLTGISDPVTVKTSGSRFGSWMTDPLAPEGDNRVWYMDGYHNNRFVREYKSMVDFMNTDNFTSHRLPHPWSGTGQVVYNGSIYFNKFQSHIIIRFDLKTEAILKTRSLDYAGYNNMYHYAWGGHSDIDLMVDENGLWAVYATNQNAGNIVISKLDPVSLQILQTWNTSYPKRSAGEAFIICGTLYVTNGYSGGTKVHYAYQTNASTYEYIDIPFQNKYSHISMLDYNPKDRALYAWNNGHQTLYNVTLFHAAA
modifications: N-linked glycans (8 per dimer, GntI-/- cells); inter-chain disulfide Cys221-Cys221; for crystallisation deglycosylated with Endo-H
notes: N-terminal residues left by the restriction site in the mature protein; Olfactomedin-1 (Olfm1), mouse, BMZ isoform cDNA as template, residues 212-478 (UNIPROT numbering); C-terminal VIRSDEL not included; includes Cys221; Only about a third of the expressed sample formed the disulfide-linked dimer; the dimer fraction was isolated by SEC and used; Secreted with a cystatin signal peptide (not in the …)
- stoichiometry N: 2
